For this experiment, the target named is T1, activated soluble HLA-A*0201.
T1 construct: MHC class I molecule that receives peptide in the fluorescence polarization assay (PolyTest); also called sHLA
Description: fluorescence polarization competition (PolyTest).
Description: FP-based peptide binding assay (PolyTest). […] For all preparations, 1×BGG/PBS was used as buffer. […] FP values given as milli-polarization (mP) are calculated by the equation:polarization (mP)=1000(S−GP)/(S+GP), where S and P are background-subtracted intensities of the fluorescence measured in the parallel (S) and perpendicular (P) directions, respectively, and G (grating) is the instrument and assay dependent correction factor.
Competition experiments were analyzed by plotting FPₘₐₓ (maximal polarization) values as a function of the logarithms of competitor concentrations. […] Observed inhibitory concentrations (IC₅₀) were determined by nonlinear curve fitting to a dose-response model with variable slope using the specific software Prism (Graph Pad Software Inc.; San Diego, Calif.).

Consider GVLPALPQV (also called GVL(47)) [GVLPALPQV, human chorionic gonadotropin-beta peptide 47-55], for which the binding result is given as “binds”. Regarding VLQGVLPAL (also called VLQ(44)) [VLQGVLPAL, human chorionic gonadotropin-beta peptide 44-52], the binding result was “binds”.

As for TMTRVLQGV (also called TMT(40)) [TMTRVLQGV, human chorionic gonadotropin-beta peptide 40-48], the binding result is listed as “binds”.

Source of the values: patent US20090075304A1 (published 2009).
